T1: Recombinant NT antigen (N-terminal pro-brain natriuretic peptide, NT-proBNP) (human, UniProt P16860 27-102)
T1 construct: domain: N-terminal pro-brain natriuretic peptide (NT-proBNP); also called recombinant NT protein; N-terminal pro-B-type natriuretic peptide
T1 sequence (looked up): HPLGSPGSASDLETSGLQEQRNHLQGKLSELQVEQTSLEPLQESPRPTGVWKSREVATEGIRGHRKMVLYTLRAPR

B1: Mutation 1-18 (antibody, V domains shown)
VH: QVRLQESGPSQVKPAQTLSLTCAISGFSITTYYIDWVRHTPGKPPEWLAQMTKDGNAVHNPTVRSRLSITRDTSKSQVFLKLTGVTTEDTAVYYCVRGIIDWGPGLLVTVSS
VL: QAVLTQPSSVSRSLGQTVSITCSGSSDNVGFGDYINWFQLIPGSAPKTLIFGATSRIRGVPDRFSGSRSGNTATLTINSLQAEDEADYYCGSPNSRNYVFGSGTRLTVLS
B2: Mutation 1-30 (antibody, V domains shown)
VH: QVRLQESGPSQVKPAQTLSLTCAISGFSLTTYYIDWVRHTPGKPPEWLAQMTKDGNAVHNPTVRSRLSITRDTSKSQVFLKLTGVTTEDTAVYYCVRGIIDWGPGLLVTVSS
VL: QAVLTQPSSVSRSLGQTVSITCSGSSDNVGFGDYINWFQLIPGSAPKTLIFGATSRIRGVPDRFSGSRSGNTATLTINSLQAEDEADYYCGSPNSRNYVFGSGTRLTVLS
B3: Mutation 1-41 (antibody, V domains shown)
VH: QVRLQESGPSQVKPAQTLSLTCAISGFSVTTYYIDWVRHTPGKPPEWLAQMTKDGNAVHNPTVRSRLSITRDTSKSQVFLKLTGVTTEDTAVYYCVRGIIDWGPGLLVTVSS
VL: QAVLTQPSSVSRSLGQTVSITCSGSSDNVGFGDYINWFQLIPGSAPKTLIFGAYSRVRGVPDRFSGSRSGNTATLTINSLQAEDEADYYCGSGNSRNYVFGSGTRLTVLS
B4: Mutation 1-40 (antibody, V domains shown)
VH: QVRLQESGPSQVKPAQTLSLTCAISGFSLTTYYLDWVRHTPGKPPEWLAQMTKDGNAVHQPTVRSRLSITRDTSKSQVFLKLTGVTTEDTAVYYCVRGVIDWGPGLLVTVSS
VL: QAVLTQPSSVSRSLGQTVSITCSGSSDNVGFGDYLNWFQLIPGSAPKTLIFGAYSRLRGVPDRFSGSRSGNTATLTINSLQAEDEADYYCGSPNSRNYVFGSGTRLTVLS
B5: Mutation 1-9 (antibody)
heavy: QVRLQESGPSQVKPAQTLSLTCAISGFSITTYYIDWVRHTPGKPPEWLAQMTKDGNAVHQPTLRSRLSITRDTSKSQVFLKLTGVTTEDTAVYYCVRGLIDFGPGLLVTVSSASTTPPKVYPLTSCCGDTSSSIVTLGCLVSSYMPEPVTVTWNSGALTSGVHTFPAILQSSGLYSLSSVVTVPASTSGAQTFICNVAHPASSTKVDKRVEPGCPDPCKHCRCPPPELPGGPSVFIFPPKPKDTLTISGTPEVTCVVVDVGQDDPEVQFSWFVDNVEVRTARTKPREEQFNSTFRVVSALPIQHQDWTGGKEFKCKVHNEGLPAPIVRTISRTKGQAREPQVYVLAPPQEELSKSTLSVTCLVTGFYPDYIAVEWQKNGQPESEDKYGTTTSQLDADGSYFLYSRLRVDKNSWQEGDTYACVVMHEALHNHYTQKSISKPPGK
light: QAVLTQPSSVSRSLGQTVSITCSGSSDQVGFGDYINWFQLIPGSAPKTLIFGASSRIRGVPDRFSGSRSGNTATLTINSLQAEDEADYYCGSANSRGGYVFGSGTRLTVLSQPKSAPSVTLFPPSKEELDTNKATVVCLISDFYPGSVNVVWKADGSTINQNVKTTQASKQSNSKYAASSYLTLTGSEWKSKSSYTCEVTHEGSTVTKTVKPSECS
B6: Mutation 1-19 (antibody)
heavy: QVRLQESGPSQVKPAQTLSLTCAISGFSITTYYLDWVRHTPGKPPEWLAQMTKDGNAVHQPTVRSRLSITRDTSKSQVFLKLTGVTTEDTAVYYCVRGIIDFGPGLLVTVSSASTTPPKVYPLTSCCGDTSSSIVTLGCLVSSYMPEPVTVTWNSGALTSGVHTFPAILQSSGLYSLSSVVTVPASTSGAQTFICNVAHPASSTKVDKRVEPGCPDPCKHCRCPPPELPGGPSVFIFPPKPKDTLTISGTPEVTCVVVDVGQDDPEVQFSWFVDNVEVRTARTKPREEQFNSTFRVVSALPIQHQDWTGGKEFKCKVHNEGLPAPIVRTISRTKGQAREPQVYVLAPPQEELSKSTLSVTCLVTGFYPDYIAVEWQKNGQPESEDKYGTTTSQLDADGSYFLYSRLRVDKNSWQEGDTYACVVMHEALHNHYTQKSISKPPGK
light: QAVLTQPSSVSRSLGQTVSITCSGSSDNVGFGDYLNWFQLIPGSAPKTLIFGATSRLRGVPDRFSGSRSGNTATLTINSLQAEDEADYYCGSGNSRNYVFGSGTRLTVLSQPKSAPSVTLFPPSKEELDTNKATVVCLISDFYPGSVNVVWKADGSTINQNVKTTQASKQSNSKYAASSYLTLTGSEWKSKSSYTCEVTHEGSTVTKTVKPSECS
B7: Mutation 1-23 (antibody)
heavy: QVRLQESGPSQVKPAQTLSLTCAISGFSLTTYYVDWVRHTPGKPPEWLAQMTKDGNAVHQPTIRSRLSITRDTSKSQVFLKLTGVTTEDTAVYYCVRGVIDFGPGLLVTVSSASTTPPKVYPLTSCCGDTSSSIVTLGCLVSSYMPEPVTVTWNSGALTSGVHTFPAILQSSGLYSLSSVVTVPASTSGAQTFICNVAHPASSTKVDKRVEPGCPDPCKHCRCPPPELPGGPSVFIFPPKPKDTLTISGTPEVTCVVVDVGQDDPEVQFSWFVDNVEVRTARTKPREEQFNSTFRVVSALPIQHQDWTGGKEFKCKVHNEGLPAPIVRTISRTKGQAREPQVYVLAPPQEELSKSTLSVTCLVTGFYPDYIAVEWQKNGQPESEDKYGTTTSQLDADGSYFLYSRLRVDKNSWQEGDTYACVVMHEALHNHYTQKSISKPPGK
light: QAVLTQPSSVSRSLGQTVSITCSGSSDQVGFGDYVNWFQLIPGSAPKTLIFGAYSRVRGVPDRFSGSRSGNTATLTINSLQAEDEADYYCGSPNSRGGYVFGSGTRLTVLSQPKSAPSVTLFPPSKEELDTNKATVVCLISDFYPGSVNVVWKADGSTINQNVKTTQASKQSNSKYAASSYLTLTGSEWKSKSSYTCEVTHEGSTVTKTVKPSECS
B8: Mutation 1-29 (antibody)
heavy: QVRLQESGPSQVKPAQTLSLTCAISGFSITTYYVDWVRHTPGKPPEWLAQMTKDGNAVHNPTVRSRLSITRDTSKSQVFLKLTGVTTEDTAVYYCVRGVIDFGPGLLVTVSSASTTPPKVYPLTSCCGDTSSSIVTLGCLVSSYMPEPVTVTWNSGALTSGVHTFPAILQSSGLYSLSSVVTVPASTSGAQTFICNVAHPASSTKVDKRVEPGCPDPCKHCRCPPPELPGGPSVFIFPPKPKDTLTISGTPEVTCVVVDVGQDDPEVQFSWFVDNVEVRTARTKPREEQFNSTFRVVSALPIQHQDWTGGKEFKCKVHNEGLPAPIVRTISRTKGQAREPQVYVLAPPQEELSKSTLSVTCLVTGFYPDYIAVEWQKNGQPESEDKYGTTTSQLDADGSYFLYSRLRVDKNSWQEGDTYACVVMHEALHNHYTQKSISKPPGK
light: QAVLTQPSSVSRSLGQTVSITCSGSSDNVGFGDYINWFQLIPGSAPKTLIFGASSRVRGVPDRFSGSRSGNTATLTINSLQAEDEADYYCGSGNSRNYVFGSGTRLTVLSQPKSAPSVTLFPPSKEELDTNKATVVCLISDFYPGSVNVVWKADGSTINQNVKTTQASKQSNSKYAASSYLTLTGSEWKSKSSYTCEVTHEGSTVTKTVKPSECS
B9: Mutation 1-35 (antibody)
heavy: QVRLQESGPSQVKPAQTLSLTCAISGFSVTTYYVDWVRHTPGKPPEWLAQMTKDGNAVHQPTIRSRLSITRDTSKSQVFLKLTGVTTEDTAVYYCVRGVIDFGPGLLVTVSSASTTPPKVYPLTSCCGDTSSSIVTLGCLVSSYMPEPVTVTWNSGALTSGVHTFPAILQSSGLYSLSSVVTVPASTSGAQTFICNVAHPASSTKVDKRVEPGCPDPCKHCRCPPPELPGGPSVFIFPPKPKDTLTISGTPEVTCVVVDVGQDDPEVQFSWFVDNVEVRTARTKPREEQFNSTFRVVSALPIQHQDWTGGKEFKCKVHNEGLPAPIVRTISRTKGQAREPQVYVLAPPQEELSKSTLSVTCLVTGFYPDYIAVEWQKNGQPESEDKYGTTTSQLDADGSYFLYSRLRVDKNSWQEGDTYACVVMHEALHNHYTQKSISKPPGK
light: QAVLTQPSSVSRSLGQTVSITCSGSSDQVGFGDYVNWFQLIPGSAPKTLIFGAYSRVRGVPDRFSGSRSGNTATLTINSLQAEDEADYYCGSPNSRGGYVFGSGTRLTVLSQPKSAPSVTLFPPSKEELDTNKATVVCLISDFYPGSVNVVWKADGSTINQNVKTTQASKQSNSKYAASSYLTLTGSEWKSKSSYTCEVTHEGSTVTKTVKPSECS
B10: Mutation 1-11 (antibody)
heavy: QVRLQESGPSQVKPAQTLSLTCAISGFSITTYYVDWVRHTPGKPPEWLAQMTKDGNAVHQPTIRSRLSITRDTSKSQVFLKLTGVTTEDTAVYYCVRGVIDFGPGLLVTVSSASTTPPKVYPLTSCCGDTSSSIVTLGCLVSSYMPEPVTVTWNSGALTSGVHTFPAILQSSGLYSLSSVVTVPASTSGAQTFICNVAHPASSTKVDKRVEPGCPDPCKHCRCPPPELPGGPSVFIFPPKPKDTLTISGTPEVTCVVVDVGQDDPEVQFSWFVDNVEVRTARTKPREEQFNSTFRVVSALPIQHQDWTGGKEFKCKVHNEGLPAPIVRTISRTKGQAREPQVYVLAPPQEELSKSTLSVTCLVTGFYPDYIAVEWQKNGQPESEDKYGTTTSQLDADGSYFLYSRLRVDKNSWQEGDTYACVVMHEALHNHYTQKSISKPPGK
light: QAVLTQPSSVSRSLGQTVSITCSGSSDQVGFGDYVNWFQLIPGSAPKTLIFGASSRVRGVPDRFSGSRSGNTATLTINSLQAEDEADYYCGSPNSRGGYVFGSGTRLTVLSQPKSAPSVTLFPPSKEELDTNKATVVCLISDFYPGSVNVVWKADGSTINQNVKTTQASKQSNSKYAASSYLTLTGSEWKSKSSYTCEVTHEGSTVTKTVKPSECS
B11: Mutation 1-17 (antibody)
heavy: QVRLQESGPSQVKPAQTLSLTCAISGFSVTTYYVDWVRHTPGKPPEWLAQMTKDGNAVHNPTVRSRLSITRDTSKSQVFLKLTGVTTEDTAVYYCVRGVIDFGPGLLVTVSSASTTPPKVYPLTSCCGDTSSSIVTLGCLVSSYMPEPVTVTWNSGALTSGVHTFPAILQSSGLYSLSSVVTVPASTSGAQTFICNVAHPASSTKVDKRVEPGCPDPCKHCRCPPPELPGGPSVFIFPPKPKDTLTISGTPEVTCVVVDVGQDDPEVQFSWFVDNVEVRTARTKPREEQFNSTFRVVSALPIQHQDWTGGKEFKCKVHNEGLPAPIVRTISRTKGQAREPQVYVLAPPQEELSKSTLSVTCLVTGFYPDYIAVEWQKNGQPESEDKYGTTTSQLDADGSYFLYSRLRVDKNSWQEGDTYACVVMHEALHNHYTQKSISKPPGK
light: QAVLTQPSSVSRSLGQTVSITCSGSSDNVGFGDYINWFQLIPGSAPKTLIFGATSRVRGVPDRFSGSRSGNTATLTINSLQAEDEADYYCGSGNSRNYVFGSGTRLTVLSQPKSAPSVTLFPPSKEELDTNKATVVCLISDFYPGSVNVVWKADGSTINQNVKTTQASKQSNSKYAASSYLTLTGSEWKSKSSYTCEVTHEGSTVTKTVKPSECS

Target: T1, Recombinant NT antigen (N-terminal …)
Assay: indirect ELISA, KD calculated from half-max OD at 4 coating concentrations
How it was run: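 Plates coated overnight at 4 °C with recombinant NT antigen at 3, 1.5, 0.75 or 0.375 μg/ml, blocked with 20% BSA. Antibody, 2-fold dilutions from 1000 to 0.977 ng/ml, was incubated 30 min at 37 °C, then detected with HRP anti-IgG, OD450/630. KD was derived from half-max OD across coating levels.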

Binder | Kd [nM]
B1 | 1.73
B2 | 2.66
B3 | 2.82
B4 | 3.47
B5 | 1.56
B6 | 1.51
B7 | 0.81
B8 | 1.49
B9 | 1.51
B10 | 1.52
B11 | 3.39
